13 sequences from a protein production outcome set (Wang et al. 2014) can be followed below.

A short description of this data set: label from the status in PepcDB records.
For the sequence “MAGFVPLRWPISRMSSAVPRYIVGIDLGTTHTVVSYADGGDPSRIEPLFLEQLVAPGQVAGRPLLPSVRYHPATGELAEADTALPWPVEETAPGCRPVIGEFARQLGSRSRGRLVASAKSWLCHTGVDRTADILPWGAPDEVPKVSPVEASASFLRHVRCAWNHRFPAHPLETQDVIVTIPASFDDAARALTVEAARRAGLANVRLLEEPQAACYDFLWTYRGRLAETLEGVNLLLVCDVGGGTTDFTLIRVDAGGSEPELERIAVGNHLMLGGDNIDLTLAHRLEPRLTGAERSLSATDLILLAEQCRRAKETLLAEQGPESVTVTLLGKGGGLIGGARSVELSRHEVLEVVLDGFFPRVGADAVPERRSGVVEFGLPYAADPAITRHAAAFLIRHRNDAGGAAPDALLLNGGVFHSPVIAGRMAEVVGSWCGRTPVMLRNPRPDQAVAFGAVAFGLSRRGLAVRRIGGGSARAYYLLVGDANERSRRGVCILPRGAAEGQEWTVERRNFLLSVGRPVRFHVFSSTVDSGHAPGDLAVLDEAGFGELPPLAVALQAQEQGDVEVRLAARLTAIGTLQLQCVAVGDPEQRWDLELQLRGGGPRPTASASLHPRAAEAQEHIGLIFGKKTRQFGPKAVKTLRNDLEKILGKREDWDTALCRELYAALLEGAPHRRRSADHERLWLSLAGYCLRPGFGAPLDDWRVGQVWNLYSQGLQFVNEAQNWSEWWIVWRRIAGGLRAEAQQRLFADVAGFIDPVRARRGNAEALAKKRAFEDMVRLAASLERLSAGDKTMLGGWLVQRLDKAPDSAELWWALGRVGARAPFHGSAHNLVAREVVEDWVELALQRDWKRQGFVAFAATLLARLTGDRERDLDATLRNRVAEKLVASSAPEIWLELVTEVRGLDASDEKRIFGEGLPPGLRLVDSAWGALEHHHHHH”, the protein production entry was “failed”.

As for “MAGGHCGSFAAAAASSGEIVQLNVGGTRFSTSRQTLMWIPDSFFSSLLSGRISTLRDETGAIFIDRDPAAFAPILNFLRTKELDLRGVSINVLRHEAEFYGITPLVRRLLLCEELERSSCGSVLFHGYLPPPGIPSRKGTNTARSSVDARNGLSSMEGEARGSGTQPVLAGNGEDTIRLVDKLSVESWPVGVPVDPRKVLIVAGHHNWIVAAYAHFAVCYRIKESSGWQQVFTSPYLDWTIERVALNAKVVGGPHGDKDKMVAVASESSIILWSVQDGGSGSEIGVFSLGVPVDALFFIGNQLVATSHTGKVGVWNAVTQHWQVQDVVPITSYDTAGSFLLLGCNNGSIYYIDMQKFPLRMKDNDLLVTELYHDPSNDAITALSVYLTPKTSVSGNWIEIAYGTSSGAVRVIVQHPETVGSGPQLFQTFTVHRSPVTKIMLSEKHLVSVCADNNHVRTWTVTRFRGMISTQPGSTPLASFKILSLKRQRATAAIPLEMTSGLLENEMINKCLSRRLFPSPTSCLSGCHRLEKGYVRSRLWTALQSPRSLXESARAPAGWAPGQGATCSLATPTAASRCGTXPQPWTWSTRARTRTQAAPLRKSCSSCWTSVIXARPAAPRPTSALPPLCSSTAAFVSPAPAFSSSTTKPSMKQQPMVPRGLTERALCXPEQGGLRASTATGTCRLSISTELXRELSLRMVTRAQPRLRQKGQQQGSVLCVRGSPRGQREDVXGSPMWAXTCTDQRKVCQSPRKGQQRMKMSPKWSSGRKDSKQGDSLEERKFPIWHPHQVPLMEGPTPLVQHPRLQLRPLRHLGTERATPLARSTAC”, the protein production result is reported as “failed”.

Consider “MAGKEFKQRIRQALNNASLRGALGRFADSYVVSREEVYAGRDFESLRQRIAAIKADAAGRYEELADRFSRAVEARGGKVFRAKDAAAAREYIYQVAKEHGVTEIVKSKSFASEEIHLNEFLQERGINPYETDLAEWILQLMPGERPSHMVMPAIHLPKEEVARVFSRYLGEPVEPDIKNMVRIARRELRKKFLTAGMGISGANIAVAETGTIVLCTNEGNARLTTTVPPVHVAIVGYEKLVPSIKDIVPILEALPRSGTAQPITSYVTMITGPVPAWRGEGEGIKELHVVLLDNGRTRMAADPVFKEALQCIRCASCTNVCPVFQLVSGQVYGYIYNGGIGSVLTAFFNSLEDAVDPQSLCIGCRRCAEVCPAKINIPDLVLKLRERVVTKQGLSSGYRIALHGIVAKPKLMHTLLRAASRLQGPVTHGQPLIRHLPLFFSNLTSGRSLPAIAKEPLRDRVKRLEARTGRPRLKAAFYSGCVIDFAYPEIGEAVYKVLGREGVQVTFPQGQACCGAPAVYAGDRETAVKLAKQNITALEEARADVVVTACPTCAVALKKDFPELLAGEPAWEERARALAKKVKDFTELVHELTGGQGKKVKQAKKSGSGAVKVTYHDSCHFKRHLGLDQVARQVLKEQPGVELVEMQESDRCCGFGGSYSIKYPEISAPILERKLKNITESGAQVVAADCPGCVLQLRGGLDQKGSSIKVKHTAEVLAALENLQGGGNSK”, for which the protein production result was “failed”.

Take “MAGKKVVITIGRQYGSGGADTGRRLAEELGFGFYDKNILRMNSDESGIKESYFHLADEKAGNKLLYKIISSLTPEKGAPSFGSDLISADNLFRFQSEVIRKLAAEESCVIIGRCANYVLDGMEGLLRVYLYADIEVREARIREKDLYDEKEVLKNIKRIDRERRDYHRYYTGRDWQELDNYDLVINTTHIGVDGAVAVIKNYLTVMGYDLEKDFH”: the protein production result is reported as “not failed”.

As for “MAGLSGAQIPDGEFTAVVYRLIRNARYAEAVQLLGGELQRSPRSRAGLSLLGYCYYRLQEFALAAECYEQLGQLHPELEQYRLYQAQALYKACLYAEATRVAFLLLDNPAYHSRVLHLQAAIKYSEGDLPGSRSLVEQLPSREGGEESGGENETDGQINLGCLLYKEGQYEAACSKFFAALQASGYQPDLSYNLALAYYSSRQYASALKHIAEIIERGIRQHPELGVGMTTEGIDVRSVGNTLVLHQTALVEAFNLKAAIEYQLRNYEAAQEALTDMPPRAEEELDPVTLHNQALMNMDARPTEGFEKLQFLLQQNPFPPETFGNLLLLYCKYEYFDLAADVLAENAHLIYKFLTPYLYDFLDAVITCQTAPEEAFIKLDGLAGMLTEVLRKLTIQVQEARHNRDDEAIKKAVNEYDETMEKYIPVLMAQAKIYWNLENYPMVEKIFRKSVEFCNDHDVWKLNVAHVLFMQENKYKEAIGFYEPIVKKHYDNILNVSAIVLANLCVSYIMTSQNEEAEELMRKIEKEEEQLSYDDPDKKMYHLCIVNLVIGTLYCAKGNYDFGISRVIKSLEPYNKKLGTDTWYYAKRCFLSLLENMSKHTIMLRDSVIQECVQFLEHCELHGRNIPAVIEQPLEEERMHVGKNTVTYESRQLKALIYEIIGWNI”, the protein production result was “failed”.

Turning to “MAGLVQKFKQMWTPPEDEYDYDFEEMDMDDEEVMDEISSSSYEEEEAYQEPQRESRRSSAPQSGNKVVNIHAAAQLQVVLFKPERFGDETRSVADELIKMHTVVLNLENTSKDVSRRILDFLSGVAYANNGKIKRVSTATFIITPYNVDLTGDDLMDEIESSSMYL”, the protein production result is recorded as “failed”.

For the sequence “MAGSSTSSSEACTDPYLRCAFNGAALTALGISHSALLAHSPQGCEYLVNNAFASQECDYMETMTLCTKLCVDEIVHGGEDILARTIREVKDLPISALFVLSACGPEIVGDDIVGVCEALQPEVKFRLVPIESAGFRGSQYDGIDIAMDTILKKLVKDDVEKIPGSVCLVAPHANANPTWPADLAWVKQVLFRMGIKVVATLTHRTPIAEIENIASAETSLLLSHDAGQKAADYLSATFGIEQVCKGIPLPIGMTNTQRWLTALGDRFDILKTAEEIVAEGERMVMATCRRKWPMARFMYRTPAAIVADATVGIPLVRFVTEEMEMTPELVALYTSHRSVWELLEGELKSLGLNPKVVYGTDVYKTRKSLQEVRPRVVFGSTIERHASEGLPVAYVVEVVRMMRQFRMINREYFGYTGILNLLECVQNEWVMGWRSKERRYEAKW”, the protein production result was “failed”.

For the sequence “MAHGMPTQGKVTISVDEYSSNPTQALTHYNINQSRFQPPHVHMVDPISYDTPKPGGHTRFVCVSDTHSRTDGIQMPYGDVLLHTGDFTELGLPSEVKKFNDWLGSLPYEFKVVIAGNHELTFDKDFMTELVKQDYYRFPSVSKLKPKDFDNVQSLLTNCVYLQDSDVTVKGFRIYGTPWTPWFNGWGFNLPRGQSLLDKWNLIPEGVDILMTHGPPLGFRDWVPKELQRVGCVELLNTVQRRVRPKLHVFGGIHEGYGIMTDGYTTFINASTCTVSFQPTNPPIVFDLPNPTSS”, the protein production result is on record as “failed”.

Take “MAHHHHHHMADQNPDLKVEEALKGADIKLLLIDFDGTLFVDKDIKVPSENIDAIKEAIEKGYMVSICTGRSKVGILSAFGEENLKKMNFYGMPGVYINGTIVYDQIGYTLLDETIETDVYAELISYLVEKNLVNQTIFHRGESNYVTEDNKYADFLQKMYSENRSIIIRHNEMLKYRTMNKLMIVLDPSESKTVIGNLKQKFKNKLTIFTTYNGHAEVTKLGHDKYTGINYLLKHYNISNDQVLVVGDAENDIAMLSNFKYSFAVANATDSAKSHAKCVLPVSHREGAVAYLLKKVFDLKK”: the protein production result is “not failed”.

With “MAHLLEKTRKITSILKRSEEQLQDELPYNAITRQLADIIHCNACIINSKGRLLGYFMRYKTNTDRVEQFFQTKIFPDDYVQGANMIYETEANLPVEHDMSIFPIESRDDFPDGLTTIAPIHVSGIRLGSLIIWRNDKKFEDEDLVLVEIASTVVGIQLLNFQREEDEKNIRRRTAVTMAVNTLSYSELRAVSAILGELNGNEGKLTASVIADRIGITRSVIVNALRKLESAGIIESRSLGMKGTYLKVLISDIFEEVKKRDY”, the protein production entry is “failed”.

Turning to “MAHRRDRGLLGIWGDLVLTSVFIAAVSLALFWMAAFTLWWQMHAWRTPEVLASTRFSRPDGGEGLSFSLLLPARHEQAVLDHTIQRLLESSHTDFEIIVIVGHDDPETTEVARKAAARDERVRVVVDTHEKKNKPKAMNTALPHCRGDVVGVFDAEDQVHPELLAHVDHAFRSTGADVVQGGVQLINFNSSWYSLRNCLEYFFWFRSRLHLHAQKGFIPLGGNTVFVRTDVLKEADGWDPDCLAEDCDLGVRLSSVGKKVVVAYDSDMVTREETPGSLMSLLKQRTRWNQGFLQVYRKKDWKQLPGFGQRLLARYTLMTPFLQAISGVIIPLNAAVALFLDVPVGIAFITFLPAVTAFVTFVFEVVGLHDFGKQYGLRVRSVHYLKLIVGGPFYQVLLAGAAIRAVWREQRGRNDWELTSHVGAHLTEVIREDVPA”, the protein production result was “failed”.

Take “MAIGIAANRLELLQIADAVAREKGIEKEVVIEAIEDALQKAARARYGAEHDIRVKIDPKTGETTQKRVIEVVSDDAELEGEIGKMPFSIAKRTWRDAEIGKVYEEVLPPFEIGRVQTQMARQVVMHKVREAERERQYDEYKDRVGEIVNGSVKRVEYGNVIVDLGRGEGIMRRDQSIPRENFNVGDRIRAYIYDVRRETKGPQIMLSRAHGGFMAKLFAQEVPEVYDGVIEIRAVARDPGSRAKMAVISNDGSIDPVGACVGMRGSRVQAVVAELQGEKIDIIQWSEDEATFIVNALAPAEVSKVVMDEEDERVEVVVPDEQLSLAIGRRGQNVRLASQLTGWQIDIMTESQESERRQREFAERTALFQEALDVDEVIAQLLVTEGFAAVEDVAYVEPHEIASIEGFDEETAEELQTRAREFLEKEAAELDAKRKALGVEDELLTIEGVTLAMAVALGEGDVKSIEDLAGLVPDDMRGWFENKGGERVREPGILESFNLSPEDAEALIMRARIAMGWVEAPPEPEPEPEFEEESSAEGDVVAEAEEEA”: the protein production entry is recorded as “failed”.

Regarding “MAIPGNMWIYDDGGALIKGGCDVADREFSIEFKGFHHNLSIPTDHATGKPTGTRQHSPMIIVKEFDYSSPYLYKAVATGQNLKSAEIKWYKISDAGQEVEYFNMLLEGVRIVSISPTMASPEDKNNNHLESVELRYEKITWKHCDGNIIFTDAWNERQTA”, the protein production entry is “not failed”.
